Measured values as given in patent US11732029B2, “Methods and compositions for the treatment of wounds” (The University of Chicago, priority 2017, dated 2023).
pKd: −log10 of the molar value.

Experiments:
CXCL-12γ = target: T1, CXCL-12γ (Homo sapiens, UniProt P48061); assay: Recombinant GF binding to the vWF recombinant protein and A1 HBD peptide (ELISA); settings: plate coated with vWF protein, A1 domain or HBD peptide, 1 μg/mL GF
T1 construct: All GFs and chemokines were purchased in their mature forms; purchased R & D Systems; host or cells: Escherichia coli
T1 sequence (P48061 22-119 isoform P48061-3): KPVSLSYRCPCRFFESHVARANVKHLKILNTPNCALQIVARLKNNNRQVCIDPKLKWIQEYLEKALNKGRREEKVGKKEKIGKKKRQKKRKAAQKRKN
Experimental: (§1) ELISA tests were performed as described above. In brief, ELISA plates were coated with 1 μg/mL of FL-vWF (WT or R1341Q), 1 μg/mL of vWF A1 recombinant protein (U-Protein Express) or 1 μg/mL of vWF A1 HBD peptide (sequence […], (SEQ ID NO:50) chemically synthesized by Genscript) at 37° C. overnight. After blocking with 2% BSA solution containing PBS-T, 1 μg/mL of the recombinant human proteins VEGF-A121, VEGF-A165, PlGF-1, PlGF-2, PDGF-BB, FGF-2, CXCL-12α and CXCL-12γ were added. 1 μg/mL of BSA served as non-binding protein control. Bound GF or chemokine was detected with biotinylated antibodies for human VEGF-A, PlGF, PDGF-BB, FGF-2, or CXCL-12 (R & D Systems). The antibodies were detected by streptavidin-HRP (R & D Systems). Color development and the absorbance measurement were done as described above.

PDGF-BB [1] = target: T2, PDGF-BB (Homo sapiens, UniProt P01127); assay: as above; settings: plate coated with vWF protein, A1 domain or HBD peptide, 1 μg/mL GF
T2 construct: All growth factors (GFs) and chemokines were purchased in their mature forms; purchased PeproTech; host or cells: Escherichia coli
T2 sequence (P01127 82-190 limits assumed): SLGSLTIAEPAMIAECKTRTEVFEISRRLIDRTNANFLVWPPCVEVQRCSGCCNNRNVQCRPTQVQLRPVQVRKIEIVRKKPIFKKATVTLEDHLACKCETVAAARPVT
Experimental: as §1

VEGF-A165 = target: T3, VEGF-A165 (Homo sapiens, UniProt P15692); assay: as above; settings: plate coated with vWF protein, A1 domain or HBD peptide, 1 μg/mL GF
T3 construct: All growth factors (GFs) and chemokines were purchased in their mature forms; purchased PeproTech; host or cells: Escherichia coli
T3 sequence (P15692 27-191 isoform P15692-4 limits assumed): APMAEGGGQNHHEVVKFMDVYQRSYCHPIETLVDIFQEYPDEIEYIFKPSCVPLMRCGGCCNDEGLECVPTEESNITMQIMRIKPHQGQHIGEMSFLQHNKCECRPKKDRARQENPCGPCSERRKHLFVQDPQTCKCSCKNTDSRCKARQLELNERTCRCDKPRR
Experimental: as §1

[2] = system: full-thickness back-skin wounds in db/db mice; assay: Mouse diabetic skin wound healing model, histomorphometric analysis; type: in vivo; settings: fibrin matrix, 100 ng VEGF-A165 and 50 ng PDGF-BB, after 7 d, vs fibrin alone
Experimental: Histomorphometric analyses were performed as previously reported. Briefly, an area of 8 mm in diameter, which includes the complete epithelial margins, was excised. Wounds were fixed with 2% PFA and cut in the center into two and embedded into paraffin. Histological analysis was performed on 5 μm serial sections. Images were captured with an EVOS FL Auto microscope (Life Technologies). The extent of re-epithelialization and granulation tissue formation were measured by histomorphometric analysis of tissue sections (H&E staining) using ImageJ software. For analysis of re-epithelialization, the distance that the epithelium had traveled across the wound was measured; the muscle edges of the panniculus carnosus were used as an indicator for the initial wound edges, and re-epithelialization was calculated as the percentage of the distance of edges of the panniculus carnosus muscle. For granulation tissue quantification, the area covered by a highly cellular tissue was determined.
Diabetic skin wound healing assays were performed in the mouse as previously reported. Briefly, C57BLKS/J-m/Lepr db (db/db) male mice were 10 to 12 wk old at the start of the experiments. Their backs were shaved and four full-thickness punch biopsy wounds (6 mm in diameter) were created in each mouse. […]

PDGF-BB [3] = target: T2, PDGF-BB; assay: Surface plasmon resonance, vWF against GF; settings: SPR; vWF immobilized; two estimated binding sites, heterogeneous ligand-parallel reaction fit; read-out: lowest KD value for PDGF-BB
Experimental: SPR assays were performed as described previously2. In brief, measurements were made with a Biacore X100 SPR system or Biacore 3000 SPR system (GE Healthcare). Plasma-derived vWF was immobilized via amine coupling on a C1 chip (GE Healthcare) for 2000 resonance units (RU) according to the manufacturer's instructions. Recombinant human VEGF-A165, VEGF-A121, or PDGF-BB was flowed at increasing concentrations in the running buffer at 30 μL/min. The sensor chip was regenerated with glycine at pH 2 for every cycle. Specific binding of GFs to vWF was calculated automatically using the response to a non-functionalized channel as a reference. Binding curves were fitted using BIAevalution software (GE Healthcare). vWF-VEGF-A165 binding results were fitted with Langmuir binding kinetics (1:1 binding with drifting baseline Rmax local). vWF-PDGF-BB binding results were fitted with heterogeneous ligand-parallel reaction.

VEGF-A121 = target: T4, VEGF-A121 (Homo sapiens, UniProt P15692); assay: vWF binding to recombinant VEGF-A isoforms (ELISA); set-up: All growth factors (GFs) and chemokines were purchased in their mature forms; purchased PeproTech; host or cells: Escherichia coli; settings: plate coated with 50 nM vWF domains, 1 μg/mL VEGF-A, vs BSA
T4 sequence (P15692 27-147 isoform P15692-9 limits assumed): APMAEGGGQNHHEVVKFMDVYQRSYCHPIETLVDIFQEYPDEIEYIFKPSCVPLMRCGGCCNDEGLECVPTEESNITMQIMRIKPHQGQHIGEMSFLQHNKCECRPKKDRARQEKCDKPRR
Experimental: ELISA was performed as previously reported1. In brief, ELISA plates (med binding: Greiner Bio-One) were coated with 50 nM BSA (GE Healthcare), pro-peptide containing recombinant vWF (Sino Biological), plasma-derived vWF (EMD Millipore), recombinant human vWF A1 domain (U-Protein Express), recombinant human vWF A2 domain (R & D systems), recombinant human vWF A3 domain (U-Protein Express), vWF A1 HBD peptide or scrambled/mutated HBD peptide (all peptides were synthesized by Genscript). After blocking with 2% BSA solution containing PBS-T, 1 μg/mL of recombinant human VEGF-A121 (PeproTech), recombinant human VEGF-A145 (R & D Systems), or recombinant human VEGF-A165 (PeproTech) was added. Bound VEGF-A was detected with 1 μg/mL of mouse anti-human VEGF-A antibody (clone: 26503, R & D systems). After 60 min of incubation, horseradish peroxidase (HRP) conjugated goat anti-mouse antibody (1:2000 dilution, Dako) was added and incubated for another 60 min. Color development and the absorbance measurement were done as described above.

Substance | binding to CXCL-12γ (CXCL-12γ) | binding to PDGF-BB (PDGF-BB [1]) | binding to VEGF-A165 (VEGF-A165) | granulation tissue [2] | wound closure [2] | pKd (PDGF-BB [3]) | binding to VEGF-A121 (VEGF-A121)
YIGLKDRKRPSELRRIASQVKYAC [vWF HBD] | showed binding | showed binding | showed binding | did not differ | did not differ |  | 
vWF: human plasma-derived von Willebrand factor (EMD Millipore) |  |  |  |  |  | 7.62 | did not
